The values below come from US20090202550A1 (WILEX, published 2009).

In assay [1] the target is FPRL1 on freshly isolated monocytes (human) (UniProt P25090). In words: cell-based or functional assay.
For assay [2], the target named is full length GPI-linked D1D2D3 (cell surface uPAR) (human) (UniProt Q03405). In words: cell-based or functional assay.
Assay [3] has as its target T1, soluble recombinant uPAR fragment D2D3 93-274 (human, UniProt Q03405 115-296).
T1 construct: Purified from COS-7 supernatant on an anti-FLAG column; Mature-protein numbering
In words: standard ELISA, coated purified protein, 7G1 as detecting antibody (FIG. 7A).

Chain of full length GPI-linked D1D2D3 (cell surface uPAR) (human) (Q03405 23-305, one chain of several): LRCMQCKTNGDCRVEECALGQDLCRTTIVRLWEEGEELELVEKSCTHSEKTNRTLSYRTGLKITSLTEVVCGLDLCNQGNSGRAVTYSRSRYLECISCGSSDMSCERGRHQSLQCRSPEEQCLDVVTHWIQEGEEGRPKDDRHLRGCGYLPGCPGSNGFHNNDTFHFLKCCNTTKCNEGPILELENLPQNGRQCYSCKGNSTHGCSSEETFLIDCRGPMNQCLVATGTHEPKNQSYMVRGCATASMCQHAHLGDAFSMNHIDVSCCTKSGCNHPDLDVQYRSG
Chain of FPRL1 on freshly isolated monocytes (human) (P25090 whole entry): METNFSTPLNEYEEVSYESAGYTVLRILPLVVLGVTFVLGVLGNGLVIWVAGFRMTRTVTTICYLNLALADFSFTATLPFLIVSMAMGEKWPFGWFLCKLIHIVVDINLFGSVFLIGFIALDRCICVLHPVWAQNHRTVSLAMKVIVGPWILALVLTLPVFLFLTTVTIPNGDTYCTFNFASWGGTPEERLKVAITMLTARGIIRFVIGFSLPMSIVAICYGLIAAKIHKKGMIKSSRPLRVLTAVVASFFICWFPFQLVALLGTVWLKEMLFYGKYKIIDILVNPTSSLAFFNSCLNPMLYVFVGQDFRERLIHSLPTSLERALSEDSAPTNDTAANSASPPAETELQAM
T1 sequence (Q03405 other isoform, or with tags, fused parts or gaps limits assumed): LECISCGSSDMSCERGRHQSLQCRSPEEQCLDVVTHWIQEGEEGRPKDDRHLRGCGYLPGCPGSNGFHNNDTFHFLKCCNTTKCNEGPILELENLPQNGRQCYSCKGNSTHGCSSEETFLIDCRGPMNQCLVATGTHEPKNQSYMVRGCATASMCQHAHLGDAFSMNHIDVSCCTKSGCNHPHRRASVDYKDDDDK

In assay [1], MMK-1, FPRL1 ligand (peptide) had a % induced migration of monocytes, MMK-1 as chemoattractant, rabbit IgG control present of 303% and a Migration fold increase, MMK-1 as chemoattractant, rabbit IgG control present of 2.94 fold.

B1: monoclonal antibody 7G1 (antibody, V domains shown)
VH: VQLQESGPELKKPGETVKISCKASGYTFTDYSMHWVKQAPGKGLKCMGWINTETTKSTYADDFKGRFALSLETSASTVYLQISNLKNEDTATYFCAREASYGEFDYWGQGTTVTVSS
VL: DIVLTQSPASLAVSLGQRATISCRASKSVSTSGYSYMHWYQQKPGQPPKLLIYLASNLESGVPARFSGSGSGTDFTLDIHPVEEEDAATYYCQHSRELPYTFGGGTKLELK
On to B1, for which, in assay [2], the % induced migration (ATF) of monocytes, antibody 50 µg/ml was 210%; the % of inhibition (referred to MOPC treatment) came to 10%; the Migration fold increase came out at 2.44 fold. Besides, the “fold lower recognition than of D2D3 84-274” value in assay [3] was at least 100 fold.
